Assay results from the supplement of paper PMC11246515.
± gives the standard deviation of the averaged measurements.

Assay: total protein half-life in vivo (active degradation + dilution); higher = more stable protein
[1] = E. coli NCM3722 delta-clpP delta-lon delta-hslV, growth: N-lim chemostat, doubling time 6 h
[2] = E. coli NCM3722 delta-clpP, growth: N-lim chemostat, doubling time 6 h
[3] = E. coli NCM3722 delta-hslV, growth: N-lim chemostat, doubling time 6 h
[4] = E. coli NCM3722 delta-lon, growth: N-lim chemostat, doubling time 6 h
[5] = E. coli NCM3722 delta-smpB, growth: N-lim chemostat, doubling time 6 h
[6] = wild type E. coli NCM3722, growth: C-lim chemostat, doubling time 3 h
[7] = wild type E. coli NCM3722, growth: C-lim chemostat, doubling time 6 h
[8] = wild type E. coli NCM3722, growth: C-lim chemostat, doubling time 12 h
[9] = wild type E. coli NCM3722, growth: N-lim chemostat, doubling time 6 h
[10] = wild type E. coli NCM3722, growth: N-lim chemostat, doubling time 12 h
[11] = wild type E. coli NCM3722, growth: P-lim chemostat, doubling time 6 h
[12] = wild type E. coli NCM3722, growth: P-lim chemostat, doubling time 12 h

Row | Sequence | total protein half-life in vivo [1] [h] | total protein half-life in vivo [2] [h] | total protein half-life in vivo [3] [h] | total protein half-life in vivo [4] [h] | total protein half-life in vivo [5] [h] | total protein half-life in vivo [6] [h] | total protein half-life in vivo [7] [h] | total protein half-life in vivo [8] [h] | total protein half-life in vivo [9] [h] | total protein half-life in vivo [10] [h] | total protein half-life in vivo [11] [h] | total protein half-life in vivo [12] [h]
1 | MKLVHMASGLAVAIALAACADKSADIQTPAPAANTSISATQQPAIQQPNVSGTVWIRQKVALPPDAVLTVTLSDASLADAPSKVLAQKAVRTEGKQSPFSFVLSFNPADVQPNARILLSAAITVNDKLVFITDTVQPVINQGGTKADLTLVPVQQTAVPVQASGGATTTVPSTSPTQVNPSSAVPAPTQY | 4.41 ± 0.88 | 6.1 ± 0.34 | 6.08 | 6.69 ± 0.2 | 5.23 ± 0.59 | 3.57 ± 0.22 | 5.53 ± 0.0062 | 11.4 ± 4.4 | 5.25 | 9.14 ± 0.82 | 5.51 ± 0.33 | 11.8 ± 0.68
2 | MNMEEIVALSVKHNVSDLHLCSAWPARWRIRGRMEAAPFDTPDVEELLREWLDDDQRAILLENGQLDFAVSLAENQRLRGSAFAQRHGISLALRLLPSHCPQLEQLGAPTVLPELLKSENGLILVTGATGSGKSTTLAAMVGYLNQHADAHILTLEDPVEYLYASQRCLIQQREIGLHCMTFASGLRAALREDPDVILLGELRDSETIRLALTAAETGHLVLATLHTRGAAQAVERLVDSFPAQEKDPVRNQLAGSLRAVLSQKLEVDKQEGRVALFELLINTPAVGNLIREGKTHQLPHVIQTGQQVGMITFQQSYQHRVGEGRL | 5.68 ± 0.4 |  |  |  |  |  |  |  |  |  |  | 
3 | MMEGQQHGEQLKRGLKNRHIQLIALGGAIGTGLFLGSASVIQSAGPGIILGYAIAGFIAFLIMRQLGEMVVEEPVAGSFSHFAYKYWGSFAGFASGWNYWVLYVLVAMAELTAVGKYIQFWYPEIPTWVSAAVFFVVINAINLTNVKVFGEMEFWFAIIKVIAVVAMIIFGGWLLFSGNGGPQATVSNLWDQGGFLPHGFTGLVMMMAIIMFSFGGLELVGITAAEADNPEQSIPKATNQVIYRILIFYIGSLAVLLSLMPWTRVTADTSPFVLIFHELGDTFVANALNIVVLTAALSVYNSCVYCNSRMLFGLAQQGNAPKALASVDKRGVPVNTILVSALVTALCVLINYLAPESAFGLLMALVVSALVINWAMISLAHMKFRRAKQEQGVVTRFPALLYPLGNWICLLFMAAVLVIMLMTPGMAISVYLIPVWLIVLGIGYLFKEKTAKAVKAH | 5.89 ± 0.35 | 4.94 ± 0.16 | 5.65 | 4.684 ± 0.041 | 5.14 ± 0.68 | 2.98 | 5.81 ± 0.44 | 11.914 ± 0.0083 | 5.68 ± 1.1 | 9.07 ± 0.36 | 5.39 ± 0.41 | 10.1 ± 1.7
4 | MRLTTKFSAFVTLLTGLTIFVTLLGCSLSFYNAIQYKFSHRVQAVATAIDTHLVSNDFSVLRPQITELMMSADIVRVDLLHGDKQVYTLARNGSYRPVGSSDLFRELSVPLIKHPGMSLRLVYQDPMGNYFHSLMTTAPLTGAIGFIIVMLFLAVRWLQRQLAGQELLETRATRILNGERGSNVLGTIYEWPPRTSSALDTLLREIQNAREQHSRLDTLIRSYAAQDVKTGLNNRLFFDNQLATLLEDQEKVGTHGIVMMIRLPDFNMLSDTWGHSQVEEQFFTLTNLLSTFMMRYPGALLARYHRSDFAALLPHRTLKEAESIAGQLIKAVDTLPNNKMLDRDDMIHIGICAWRSGQDTEQVMEHAESATRNAGLQGGNSWAIYDDSLPEKGRGNVRWRTLIEQMLSRGGPRLYQKPAVTREGQVHHRELMCRIFDGNEEVSSAEYMPMVLQFGLSEEYDRLQISRLIPLLRYWPEENLAIQVTVESLIRPRFQRWLRDTLMQCEKSQRKRIIIELAEADVGQHISRLQPVIRLVNALGVRVAVNQAGLTLVSTSWIKELNVELLKLHPGLVRNIEKRTENQLLVQSLVEACSGTSTQVYATGVRSRSEWQTLIQRGVTGGQGDFFASSQPLDTNVKKYSQRYSV | 6 ± 1.2 | 6.52 ± 0.62 | 6.35 ± 0.42 | 5.67 ± 0.62 | 5.945 ± 0.0086 | 3.44 ± 0.17 | 6.042 ± 0.0062 |  | 6.45 ± 0.23 | 11.59 ± 0.06 | 5.52 ± 0.13 | 13 ± 0.43
5 | MKTVRESTTLYNFLGSHNPYWRLTESSDVLRFSTTETTEPDRTLQLSAEQAARIREMTVITSSLMMSLTVDESDLSVHLVGRKINKREWAGNASAWHDTPAVARDLSHGLSFAEQVVSEAHSAIVILDSRGNIQRFNRLCEDYTGLKEHDVIGQSVFKLFMSRREAAASRRNNRVFFRSGNAYEVELWIPTCKGQRLFLFRNKFVHSGSGKNEIFLICSGTDITEERRAQERLRILANTDSITGLPNRNAMQDLIDHAINHADNNKVGVVYLDLDNFKKVNDAYGHLFGDQLLRDVSLAILSCLEHDQVLARPGGDEFLVLASNTSQSALEAMASRILTRLRLPFRIGLIEVYTSCSVGIALSPEHGSDSTAIIRHADTAMYTAKEGGRGQFCVFTPEMNQRVFEYLWLDTNLRKALENDQLVIHYQPKITWRGEVRSLEALVRWQSPERGLIPPLDFISYAEESGLIVPLGRWVILDVVRQVAKWRDKGINLRVAVNISARQLADQTIFTALKQVLQELNFEYCPIDVELTESCLIENDELALSVIQQFSQLGAQVHLDDFGTGYSSLSQLARFPIDAIKLDQVFVRDIHKQPVSQSLVRAIVAVAQALNLQVIAEGVESAKEDAFLTKNGINERQGFLFAKPMPAVAFERWYKRYLKRA | 6.59 ± 1.2 | 2.14 | 2.36 ± 0.18 | 3.107 ± 0.019 | 1.94 ± 0.029 | 1.58 ± 0.59 | 4.6 ± 2.3 | 5.35 | 3.27 ± 0.56 | 3.63 |  | 
6 | MLGKYKAVLALLLLIILVPLTLLMTLGLWVPTLAGIWLPLGTRIALDESPRITRKGLIIPDLRYLVGDCQLAHITNASLSHPSRWLLNVGTVELDSACLAKLPQTEQSPAAPKTLAQWQAMLPNTWINIDKLIFSPWQEWQGKLSLALTSDIQQLRYQGEKVKFQGQLKGQQLTVSELDVVAFENQPPVKLVGEFAMPLVPDGLPVSGHATATLNLPQEPSLVDAELDWQENSGQLIVLARDNGDPLLDLPWQITRQQLTVSDGRWSWPYAGFPLSGRLGVKVDNWQAGLENALVSGRLSVLTQGQAGKGNAVLNFGPGKLSMDNSQLPLQLTGEAKQADLILYARLPAQLSGSLSDPTLTFEPGALLRSKGRVIDSLDIDEIRWPLAGVKVTQRGVDGRLQAILQAHENELGDFVLHMDGLANDFLPDAGRWQWRYWGKGSFTPMNATWDVAGKGEWHDSTITLTDLSTGFDQLQYGTMTVEKPRLILDKPIVWVRDAQHPSFSGALSLDAGQTLFTGGSVLPPSTLKFSVDGRDPTYFLFKGDLHAGEIGPVRVNGRWDGIRLRGNAWWPKQSLTVFQPLVPPDWKMNLRDGELYAQVAFSAAPEQGFRAGGHGVLKGGSAWMPDNQVNGVDFVLPFRFADGAWHLGTRGPVTLRIAEVINLVTAKNITADLQGRYPWTEEEPLLLTDVSVDVLGGNVLMKQLRMPQHDPALLRLNNLSSSELVSAVNPKQFAMSGAFSGALPLWLNNEKWIVKDGWLANSGPMTLRLDKDTADAVVKDNMTAGSAINWLRYMEISRSSTKINLDNLGLLTMQANITGTSRVDGKSGTVNLNYHHEENIFTLWRSLRFGDNLQAWLEQNARLPGNDCPQGKECEEKQ |  | 5.985 ± 0.043 | 6.03 ± 0.13 | 6.22 ± 0.2 | 5.57 ± 0.078 | 3.236 ± 0.032 | 6.2 ± 0.12 | 10.8 ± 0.14 | 6 ± 0.47 | 12.3 ± 0.45 | 6.06 ± 0.32 | 12.17 ± 0.039
